From article PMC4651853 (DNA repair, 2015)
Values joined by “and” are separate entries in the source; they are usually repeats but may differ in a detail not shown here. Equal values may be shown once.

B1: MutS (natural protein, E. coli, UniProt P23909 1-853, looked up)
chain: MSAIENFDAHTPMMQQYLRLKAQHPEILLFYRMGDFYELFYDDAKRASQLLDISLTKRGASAGEPIPMAGIPYHAVENYLAKLVNQGESVAICEQIGDPATSKGPVERKVVRIVTPGTISDEALLQERQDNLLAAIWQDSKGFGYATLDISSGRFRLSEPADRETMAAELQRTNPAELLYAEDFAEMSLIEGRRGLRRRPLWEFEIDTARQQLNLQFGTRDLVGFGVENAPRGLCAAGCLLQYAKDTQRTTLPHIRSITMEREQDSIIMDAATRRNLEITQNLAGGAENTLASVLDCTVTPMGSRMLKRWLHMPVRDTRVLLERQQTIGALQDFTAGLQPVLRQVGDLERILARLALRTARPRDLARMRHAFQQLPELRAQLETVDSAPVQALREKMGEFAELRDLLERAIIDTPPVLVRDGGVIASGYNEELDEWRALADGATDYLERLEVRERERTGLDTLKVGFNAVHGYYIQISRGQSHLAPINYMRRQTLKNAERYIIPELKEYEDKVLTSKGKALALEKQLYEELFDLLLPHLEALQQSASALAELDVLVNLAERAYTLNYTCPTFIDKPGIRITEGRHPVVEQVLNEPFIANPLNLSPQRRMLIITGPNMGGKSTYMRQTALIALMAYIGSYVPAQKVEIGPIDRIFTRVGAADDLASGRSTFMVEMTETANILHNATEYSLVLMDEIGRGTSTYDGLSLAWACAENLANKIKALTLFATHYFELTQLPEKMEGVANVHLDALEHGDTIAFMHSVQDGAASKSYGLAVAALAGVPKEVIKRARQKLRELESISPNAAATQVDGTQMSLLSVPEETSPAVEALENLDPDSLTPRQALEWIYRLKSLV

Tests used:
MutS = biological target: B1; test: atomic force microscopy
atomic force microscopy = biological target: the molecule itself; test: atomic force microscopy

Row | Binder | binding result (MutS) | stoichiometry N (atomic force microscopy)
1 | his-MutL (natural protein, E. coli, UniProt P23367 1-615, looked up) MPIQVLPPQLANQIAAGEVVERPASVVKELVENSLDAGATRIDIDIERGGAKLIRIRDNGCGIKKDELALALARHATSKIASLDDLEAIISLGFRGEALASISSVSRLTLTSRTAEQQEAWQAYAEGRDMNVTVKPAAHPVGTTLEVLDLFYNTPARRKFLRTEKTEFNHIDEIIRRIALARFDVTINLSHNGKIVRQYRAVPEGGQKERRLGAICGTAFLEQALAIEWQHGDLTLRGWVADPNHTTPALAEIQYCYVNGRMMRDRLINHAIRQACEDKLGADQQPAFVLYLEIDPHQVDVNVHPAKHEVRFHQSRLVHDFIYQGVLSVLQQQLETPLPLDDEPQPAPRSIPENRVAAGRNHFAEPAAREPVAPRYTPAPASGSRPAAPWPNAQPGYQKQQGEVYRQLLQTPAPMQKLKAPEPQEPALAANSQSFGRVLTIVHSDCALLERDGNISLLSLPVAERWLRQAQLTPGEAPVCAQPLLIPLRLKVSAEEKSALEKAQSALAELGIDFQSDAQHVTIRAVPLPLRQQNLQILIPELIGYLAKQSVFEPGNIAQWIARNLMSEHAQWSMAQAITLLADVERLCPQLVKTPPGGLLQSVDLHPAIKALKDE | binds | –
2 | B1 | – | 2 and 4
